Measurements: EP4793290A2

Biological target: mouse PD-L1 (mouse) (UniProt Q9EP73)
Test: flow cytometry on DOdKO-mPD-L1/mCD80 cells pretreated with 10 µg/ml TKMG48

Chain of mouse PD-L1 (mouse) (Q9EP73 19-290 limits assumed): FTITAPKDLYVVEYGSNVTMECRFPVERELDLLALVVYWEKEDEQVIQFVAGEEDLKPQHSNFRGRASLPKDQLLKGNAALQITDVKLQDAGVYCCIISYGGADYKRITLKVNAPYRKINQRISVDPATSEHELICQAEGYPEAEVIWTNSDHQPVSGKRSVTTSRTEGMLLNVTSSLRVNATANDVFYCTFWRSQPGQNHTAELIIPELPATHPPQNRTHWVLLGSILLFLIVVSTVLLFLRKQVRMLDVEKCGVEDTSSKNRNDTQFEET
Chain of soluble mouse PD-1 extracellular region (PD-1-EC) protein (Q02242 other isoform, or with tags, fused parts or gaps): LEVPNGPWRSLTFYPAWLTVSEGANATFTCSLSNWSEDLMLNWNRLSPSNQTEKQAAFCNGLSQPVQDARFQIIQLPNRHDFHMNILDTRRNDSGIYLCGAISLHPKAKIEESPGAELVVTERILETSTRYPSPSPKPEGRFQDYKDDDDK

amount of binding (mean fluorescence intensity) relative to control IgG pretreatment: 10.1 times
Substance: soluble mouse PD-1 extracellular region (PD-1-EC) protein (from UniProt Q02242 25-167) (receptor)
